Reference: the NTF2 design screens of Basanta et al. (2020)

Assay: protease stability score; higher = more stable; yeast display proteolysis, trypsin and chymotrypsin;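 further: relative to predicted unfolded state with 0 unfolded-like and 1 meaning tenfold more protease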

| Sequence | protease stability score |
| --- | --- |
| DELDRTVEEVSRYFMRNYITGNEERLWEMADPHVKFISEHHESHGMEEHKKFLEEAGITNVKFDIHDQKVFNGVVVVNGKIHVNGRTVDVRLISEKFDGRWHLHIIRVD | 1.15 |
| TEEHEDIMHFILEWTNSLLTGDFKRVKEMADPHVRVLIVIGDKELHLHGREWILKRTHDIVREMRVEIILHHVDSQGNFAHVDSTLRIEVDGVRFERKTRIHMDIVNGKLKSHEHRIE | 1.29 |
| DHQEKRTTEANEMFREAIETGDEKTLTRLVDPNVKIIVGDKRYHGREWFLHLMLHEILHLRVRIHTEDYRVVDGRIEFITHLEIEIGDKTVRRETFVFVDKINGRWLYQSFQDG | 0.773 |
| DEEEEATEKFFEKLLRSWKTGDEKSYEELLDPHARSDINGKIFHGRDKLSQMLHEFLKRVKGITIHDVKVHDSRLIDGRAILDGRVDMKVGDKRFELNREVVTLKVDGRWILESEIVK | 0.767 |
| DEHEEDVSKFTKMWEEDIRTGDEDSLYKMIDPHALLDFNGKEIIGREEVMHILHEELRELRIHNVHTHDIKVQGNKVNLNIRFNIEINGRIYDLQYKYDWRKINGRWFAHSEVIR | 0.764 |
| SEDEHLADHFLRLQRKHIDTGDEDSFDRMIDPRAKFDIDGQEFHGREWSEWVKKRFDHVHIERIITRKFHVVDGRAEFHVDYDGRLNYNGVEVRVTLKQITIIEKIDGRWYVRSESIK | 0.656 |
| DEDTEEWRHLLEEYREFIETGDEDYLRTMLDPHVRVVVNGRDHHGWKAFNFMLRHIRVRHVHIHDIRLFNGQVEVDSRIDGIVNGRRLIFRLDIVAFKIDGQWIAQSFTII | 1.65 |
| SEDERLLREAVEELIHSWETGDFDHVLRMFDPDVRLHFEGRHTHGREVYEQQLRFLWERFKNVRITVEYKHVEVINGKAIVHGKLLLIIGDKTVELTNEIYVRKINGKWLSEEIRIK | 1.44 |
| DDLEEEAHKFLRIWLKNIITGDEDTLIELMDPRPRTIFNGVDLHGREDTSKRLSELRFNMRIDDIHVEVQGDKAIALSDVSYELIYNGRHVHLKSEIILTVRKFDGKWKAERLEIRIK | 1.67 |
| DEEEEERRRIAKELTHLWHTGDEDRLIEMADPNDRILIGDFDIHGWESAMRFLRYFRREFGVKHEEIKDIEIQGEKTHIHSHLKVGDKRHHVLVILVVINGRHKRIEIRIH | 0.755 |
| DEDKKITDRAFEIFIHNLYTGNEEDLHELADPNVRHIYGDWNVHGMELMTHVLWEIRMKRLNEHDLEIHIINGRAIIDLDGELDGEVNGRRHHRRIIIHVFALKIDGRWHLESMEVKTK | 1.35 |
| REEEKDEERMVHELMEWHRTGDEKTLNELLDPNARFIINGKHIHGREVFNEEVKRLGFRIEEYHLRRVRIYDGRIEFETEIDGEVNGRRLHIETRFHAIKINGQWRLKHIEFH | 2.5 |
| TEEREHDHRIFNLFLHWWMTGNEEEIHKYIDPNVRMRLDVNGVEIRDVGREMVMEMLRILYEFLGIDVSRIHSHDTQGDKVVLHGRNHVNGRDIEVHIEWKVINGKLKEVRIEIRER | 1.57 |
| SELEKYSKLMLDLILHSRLTGDEEHHEKLMDPNVRIEIGDKELHGRELAVKWMSHWRLEELRVRHIHNQGDKINVDVEEVETVDGVRIRFRSELIILKVDGQWLNHSIITR | 1.16 |
| TEEEDLIRRQIHELRETLQTGDEHLLNWLLDPHARMEIDGQEVWGREEIAKFLHRFKNITVLFNDMIVQGDKVDIDGQIEFNGRRRRARLISDKVDGQWIDHDIIII | 1.3 |
| DEEQQDLIEVVNRYLRAVLTGDEDDLRELLDPHYRIRIGDKEFVGWKEFIRHVREARYTIHRWSVDSVEIIGDKVILYGELDGIEKVNGKTIKKRFEVIFYINKIDGRWHFKHIEFH | 2.29 |
| SEIEEQVEEAYRLILEMLHTGDEHTMHELIDPHVRHRIDGQTYHGREFLIKWLVKLREDWGVEKISVKLKFITIIGDFALVVVDIHINGVKLKNHTLATKVNGRWRDHTVNIEHI | 0.637 |
| DHHEEASHRVIEILLRAHRTGDWHELLRMMDPNTMLIVGDKTFHGREELEKILRHFVERAITIHDIKIESVENQGDKIHVHGHIDKRVNGRQVSIETEIDILKVNGRWFISTLRYH | 1.89 |
| DEEEERTKHHFELLFKLWTTGDEDSLSHLADPNVRVHVDGKDFHGWEDMKDFMREWIERFKNVRLELKHFEAQGDKASSEIKIHYGDKHVTEFIEIILFNGRLHEIRRLFKRD | 1.01 |
| EERKESIRLAVEMIEHVFKTGNPEDEMSLFDPHAKLDVGDKHFHGREEYSRWSEEVRRRYGADHIEFRIEDVHSQGDFVDIHGKEVYIYNGVTFVIDVHFHVLKVNGRWLIKHIRIN | 1.3 |
| DEMRRDVDETLKELLEAWETGDEEKVSHLMDPNVRIHIGDKTLVGRELVREEVRHLRYHDYDVHHIRVIGEKADIDGVLDGNVNGRRENRKIHLHLLKVDGRWFFEETRFE | -0.004 |
| HEDEEIIERILREFLHYQNTGDEDELRKLADPNVRVIQGDKHFVGREEFRRWVHEHLSQVDHVELEIEDMRIVGDFVEIRGKLHNKAEGRSIKEEVRLVLFKFDGRWTLHDVRVH | 2.09 |
| DEMRKYAHEYFKLLIELLLTGDEDSMLHNIDPNVRFDEHAENHRVHIHGMESLREWLDHFLKHAWITHIHESDSRVFNGRMHLIGHTRIYIDGKLEIKEIRIEFIVINGRITHYRVEVN | 1.52 |
| DEEEKHHHELFKEWSRSLITGDFTTMERMIDPNARFEINGVEFHGMDTLRKFTEHLGWEIEHVHDHRIEVYDGVDHVDTKIRGRIDGRRTETRARIILFIYDGRIKSIHEETK | 0.631 |
| DDEDRHASKLYHIIVHLEVTGDFEKWRDYADPNVRIVIGDKEFHGRELFMEWLKEIRLERFRIKHIKVIGEKTNSTTSFEVNVNGVRIENDTRIHIHVIDGKVHSVHFEIR | 1.57 |

| Sequence | protease stability score |
| --- | --- |
| SEEEEFTKLLLELLAHALRTGDESMLQYLADPNVRIDINGKELHGMEVLTHWLRRIDHIDSFFHIDHIDLVDGKLKVNGRTELIVRQGDKSHHSEWDVRIISDKVNGRWLLESISFK | 2.08 |
| DELEHDAREYFRILEESIRTGDEDLFRKLADPNVRLMIDGKNWIGWESYHEELRQYDHRHVDMRIDHIEVVDGRVHIDGRIEVTITIDGVEHRLNHKLRVEIEKIDGRWHMKFILVE | 1.67 |
| DEDEEMSRIALNLFIHAMDTGDEHTLTHLMDPNVQLQINGREIIGREEVIRFVRELGVKHVKSHRLRDMELQGDKIIIDAEVEESQGDKEHHFRHTIVFRKVNGRWIIQSIKIK | 2.13 |
| HEEEELARKLVEILLNLLLTGDEDVIRHLLDPNARIHIDGQDNVGREEVIRVWRHWLEKFGIDHIEINRIHYQGEWLHIIGLVKVNGRERPLHIHLNVINGRLKHSEFRIR | 1.48 |
| DEDKEIADNFLKQLLRDIQTGDEDSFIERLDPNARLQVGDKHVHGMDEVLRTRREWVKLMGADHIHHVEVNHVHIQGDKVHMDVEVDVEFNGKRRRLKSHLILTKVDGQWIITMEIIK | 1.08 |
| DEDDEDTRRLLKLLSDAEETGDEELLRHLADPHVRVHVGDKEWHGWDAFVRFLRHIRIETFHVRRIRVQGDKVDVDGQTVVTINGRRHELKTTIILIKIDGQWVIEKLTIH | 1.79 |
| DEEEHEEKRLLEMHLHYLATGDEENLKKLLDPNVKLVVNGREIHGRERIIEFIRRLIEMWGVDRIDSRIRHVTSQGDKIRLEGEWIVGEKVIDTRLLAVKVDGRWVEETLILK | 2.13 |
| SEEHESSQKAIELLWHSMETGDEKLTEDFADPHVRLEFNGVRFHGRDQMNEIIHRQLREMRLKSIHLHHIYSFNGRVHIHGEVIGRVDGRELSHEMEIVAVKVDGKWVLKSLRIH | 1.2 |
| DELHKHAEHMAKLIVETLETGDEDKIRELADPNVRMEIGDKRTIGREELTKLLRKWLSEWRVHDMHVESVEMQGDYTHLHTSVRGEVNGRHRELDTRIDVLVVNGRLKSLRLEIR | 1.04 |
| DHQEHIIKVSLEILLESARTGDERSLERLFDPNVRIINENEERHGREALEILLKRIDHIHHLNIRDTRIQGDFLITEVHVRINVNGVHIQNDMVLYAWKVNGRWHIRSIEFK | 1.39 |
| SEEERDLREALEEHKRTLQTGDEELWNKLFDPHARSDINGVEFHGMEDISRHIYKFFIDFGFKHVRFKHVELYGDKLVMRGSLNINGVDLDIEIISRKIDGRWLIHHWIIR | 0.859 |
| DEEEELSKRLVELLLKLLKTGNEEELIKNADPHAKVQIRINGREFIHHGWEAFSHLWRHYIIKFKNIRIHDRHMEIQGDWVHIHSEEQIGDKRIEVEIRIQIINGVQKNVHIDIHEH | 1.47 |
| SEEERDAHEAWRLILETNLTGDEDFSANLMDPDVRITINGRHLHGRELVLRFLNEWRIEFHRVEIKDYEVQGDYVIIIGHMDGILKVDGKEIRFTSDVSIISVKVNGRWLIREIHIK | 2.7 |
| DELEKIVEDFLRVLLEHLHTGNWEYLKEYFDPDVRIKIGDKELHGREDFVRRLREWLSRIKNATFEIEVDDNKVQGDKAILHTKVIIRVGDKLIELKTHIIVNKINGVWMVRSQSVE | 1.46 |
| TEHEKFKEEWVRMFLRDWLTGNENTLRHLADPDTLLEINGRIFHGMHTISRWTEEHLRRIDHLRLEMHTVDVIGDFAHVHGTLKLHVGDKEHHVTFHINLFTINGRIKSIIVKEE | 1.43 |
| DEDEEFAKELLERTAESIVTGDEDMWREYFDPHARIEFNGKDYHGWHEFERMLRELRVHRVEVEVKRVHLYDGRMDVKGELHIKGTFDGRRVEESTDVDYFIIKIDGQWYIRHETII | 0.761 |
| SEAEKRSEIILRLILHSLHTGDEHTLESLFDPNVRILIGDKELVGMEELSKLLRHIRIERVHIHLRDDRQQGDKADMDVELHRHGTFNGVRRDESSRIWIHAEKVDGRWVISEVIVH | 1.02 |
| DEDKDLIDLHFEIYQQVVLTGDFRKFRRLFDPNTRWEIGDKEFHGREHLSKLHKDLLEHLGVRVREVELHNFHIQGDKIHLDTRIHVHAENHHMIHITEIISTKIDGRWIITELRLR | 0.826 |
| SDEQEMLTRIIEIFFHAVLTGDEETLIEMLDPHARLDVNGVTVIGMEKIWHHVEEMRFKDTKIHDIDVQGNKMKVDGRLDGQINGREHRFRTIIIIEKINGKWLVKRIIIL | 2.44 |
| NEVEDEIKHLLEHLLHSHDTGDWHDLVRLADPNVRVNINGKHFHGREDVEEVIKRLGIKHIRIHHVEVQGDKIHIDGNMHFDGRVYETHIDAKKIDGRWIMHNLEVR | 1.4 |
| REDDEMSEEANRLLHELVRTGDFEQLIKNMDPNTRLRQGDKHFHGREEYEKHWRELLERAGLERVELHIDDIRVFNGVAHINGTLRIGDKVMEVRLILTKFNGKWIFTSMEIH | 1.26 |
| SEEERHWKEFIRMMFEALKTGDETELEKNIDPNVRVHINGQELHGRETASRFMQKHEEDMGFKHFHIDHIHFQGDKIHVHGILWVNGRDIEIHIHLVIVNGRVSLVSRDIREH | 0.247 |
| SEDEEWVSLLATLILRVLLTGDEDIWKKLADPNTIHDIGEKHFHGREEIARFWMELRIKSFHVRDMDVVGDFFHIRTHMDVSIDGKDIRTDVEIHILIINGRVKRQRFEFH | 0.404 |
| DEEKKFYIKLFELFWRAWLTGNEQFLLEMADPNVKVEYTYNGRDVRTHGRETMYTFLHEILRYLGVKHSRLRRDEFQGDKVHLDVEEHFNGRTVKTLIIIDVVDGRLEIDKFHTT | 0.705 |
| TEEEKEVEDLLRVVIHALQTGDEKKISELVDPNMRVKIGDKINHGWENAFEFHVRFIKELGVDHINIHPRHVRLIGDKVEVHLNLIIHVNGRDHETEIRLTAIKVNGRWHIESFEEQ | 1.91 |
